US20250136718A1 (MABWELL THERAPEUTICS, published 2025)

T1: TMPRSS6 expressed in transfected HepG2 cells (HAMP-luciferase reporter assay) (UniProt Q8IU80 1-811, limits assumed)
T1 sequence (looked up): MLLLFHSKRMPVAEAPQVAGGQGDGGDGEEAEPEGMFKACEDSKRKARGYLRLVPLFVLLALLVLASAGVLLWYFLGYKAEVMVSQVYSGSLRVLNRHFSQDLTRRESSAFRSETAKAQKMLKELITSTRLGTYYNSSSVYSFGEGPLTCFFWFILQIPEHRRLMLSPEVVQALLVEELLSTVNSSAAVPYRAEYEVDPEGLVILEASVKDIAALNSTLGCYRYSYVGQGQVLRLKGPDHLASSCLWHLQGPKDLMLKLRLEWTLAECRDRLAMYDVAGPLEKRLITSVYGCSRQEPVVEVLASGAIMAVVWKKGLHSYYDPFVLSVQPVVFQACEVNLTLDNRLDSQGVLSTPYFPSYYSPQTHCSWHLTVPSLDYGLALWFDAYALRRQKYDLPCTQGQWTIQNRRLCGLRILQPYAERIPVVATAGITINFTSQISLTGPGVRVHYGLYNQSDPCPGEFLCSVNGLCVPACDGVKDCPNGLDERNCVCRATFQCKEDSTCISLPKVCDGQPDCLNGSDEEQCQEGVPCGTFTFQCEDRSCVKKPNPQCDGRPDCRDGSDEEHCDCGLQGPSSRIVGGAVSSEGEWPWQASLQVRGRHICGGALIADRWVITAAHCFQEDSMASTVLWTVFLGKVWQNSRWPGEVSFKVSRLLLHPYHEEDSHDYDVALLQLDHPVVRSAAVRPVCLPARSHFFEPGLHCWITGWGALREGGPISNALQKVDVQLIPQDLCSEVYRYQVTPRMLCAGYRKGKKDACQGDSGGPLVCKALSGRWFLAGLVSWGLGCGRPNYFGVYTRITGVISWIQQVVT

T2: human ecto-TMPRSS6-FLAG (UniProt Q8IU80 77-811)
T2 chain: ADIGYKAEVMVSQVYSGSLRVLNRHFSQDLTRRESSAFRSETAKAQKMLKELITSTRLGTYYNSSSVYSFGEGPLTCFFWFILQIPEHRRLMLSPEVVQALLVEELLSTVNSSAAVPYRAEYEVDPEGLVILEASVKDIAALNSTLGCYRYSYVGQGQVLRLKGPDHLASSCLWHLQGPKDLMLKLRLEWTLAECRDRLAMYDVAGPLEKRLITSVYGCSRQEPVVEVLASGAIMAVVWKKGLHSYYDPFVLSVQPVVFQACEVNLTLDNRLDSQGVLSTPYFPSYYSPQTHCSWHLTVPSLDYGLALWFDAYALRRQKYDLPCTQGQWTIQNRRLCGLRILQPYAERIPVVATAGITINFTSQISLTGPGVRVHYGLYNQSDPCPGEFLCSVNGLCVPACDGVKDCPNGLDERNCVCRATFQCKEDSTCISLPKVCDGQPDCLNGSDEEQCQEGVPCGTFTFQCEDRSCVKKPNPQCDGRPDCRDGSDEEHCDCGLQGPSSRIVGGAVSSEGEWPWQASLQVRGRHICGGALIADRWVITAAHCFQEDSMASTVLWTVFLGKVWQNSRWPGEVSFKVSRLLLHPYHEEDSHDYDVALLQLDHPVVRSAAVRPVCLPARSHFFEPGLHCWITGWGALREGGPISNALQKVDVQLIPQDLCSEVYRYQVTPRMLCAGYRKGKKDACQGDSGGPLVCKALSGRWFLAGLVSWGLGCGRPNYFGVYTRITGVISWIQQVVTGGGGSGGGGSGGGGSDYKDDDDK

B1: MWTx-003 anti-TMPRSS6 monoclonal antibody (antibody, mouse IgG2b, kappa, V domains shown)
VH: EVQLQQSGAELVKPGASVKLSCTASGFNIEDYYIHWVKERTEQGLEWIGRIDPEDGETTYAPQFQGKATIIPDTSSNTAYMQLSSLTSEDAAVYYCARSIYLDPMDYWGQGTSVTVSS
VL: DIVMTQSHKFMSTSVGDRVSITCKASQDVTTAVAWYQQKPGQSPKILIYWATTRHTGVPDRFTGSISGTTYILTISSVQAEDLALYYCQQHYSTPYTFGGGTKLEIKR
notes: Mouse monoclonal antibody from hybridoma (ATCC PTA-126761); The recombinant version r4K12B has the same HC and LC; also called r4K12B; recombinant MWTx-003
B2: humanized anti-TMPRSS6 antibody variant hzMWTx-003 Var (antibody, human IgG1, kappa, L234A L235A, V domains shown)
VH: QVQLVQSGAEVKKPGASVKVSCKASGFNIEDYYMHWVRQAPGQRLEWMGRIDPEDAETTYSPKFQGRVTIIPDTSANTAYMELSSLRSEDTAVYYCARSIYLDPMDYWGQGTLVTVSS
VL: DIQMTQSPKSLSASVGDRVTITCRASQDVTTALAWYQQKPGQSPKLLIYWATTRHSGVPSRFSGSGSGTDFTLTISSLQPEDFATYYCQQHYSTPYTFGQGTKLEIKR
notes: Human IgG1 / kappa
B3: MWTx-001 anti-TMPRSS6 monoclonal antibody (antibody, mouse IgG2a, kappa, V domains shown)
VH: QVQLQQPGAELAKPGASVKMSCKASGYTFTSYWITWVKQRPGQDLEWIGNIYPGSGSTYYNEKFKSKATLTVDTSSRTAYMQLSSLTSADSAVYYCAPYDSDYAMDYWGQGTSVTVSS
VL: DIKMTQSPSSMYASLGERVTITCKASQDINNYLSWFQQKPGKSPKTLIYRANRLVDGVPSRVSGSGSGQDYSLTISSLEYEDVGIYFCLQYDEFPLTFGAGTKLELKR
notes: Mouse monoclonal antibody from hybridoma (ATCC PTA-126759)
B4: humanized anti-TMPRSS6 antibody variant hzMWTx-002 Var (antibody, human IgG1, kappa, N297A, V domains shown)
VH: EVQLVQSGAEVKKPGASVKVSCKASGFNIKDYYIHWVRQATGQGLEWMGRIDPEDAESEYAPKFQGRVTITADTSTDTAYMELSSLRSEDTAVYYCTRGDSMMVTYFDYWGQGTLVTVSS
VL: DIQMTQSPSSLSASVGDRVTITCKASQDVSTAVAWYQQKPGKAPKLLIYWAFTRHTGVPSRFSGSGSGTDYALTISSLQPEDFATYYCQQHYRSPWTFGGGTKVEIKR
notes: Human IgG1 / kappa
B5: humanized anti-TMPRSS6 antibody variant hzMWTx-001 Var (antibody, human IgG1, kappa, N297A, V domains shown)
VH: EVQLVQSGAEVKKPGASVKVSCKASGYTFTSYWITWVRQAPGQRLEWIGNIYPGSGSTYYNEKFKSKATITRDTSSRTAYMELSSLRSEDTAVYYCAPYDADYAMDYWGQGTLVTVSS
VL: DIQMTQSPSSLSASVGDRVTITCKASQDISNYLSWFQQKPGKAPKLLIYRANRLVEGVPSRFSGSGSGTDFTLTISSLQPEDFATYFCLQYDEFPLTFGGGTKVEIKR
notes: Human IgG1 / kappa
B6: MWTx-002 anti-TMPRSS6 monoclonal antibody (antibody, mouse IgG2b, kappa, V domains shown)
VH: EVQLQQSGAELVKPGASVKLSCTASGFNIKDYYIHWVKERTEQGLEWFGRIDPEDGESEYAPKFQGKATLTADTSSNTAYLQLSSLTSEDTAVYYCTRGDSMMVTYFDYWGQGTTLTVSS
VL: DIVMTQSHKFMSTSVGDRVSITCKASQDVSTAVAWYQQKPGQSPKLLIYWAFTRHTGVPDRFTSTGSGTDYALTISSVQAEDLALYYCQQHYRSPWTFGGGTKLEIKR
notes: Mouse monoclonal antibody from hybridoma (ATCC PTA-126760)

target: T1, TMPRSS6 expressed in transfected HepG2 …; assay: cell-based or functional assay

EC50 of the increase of HAMP promoter activity (HAMP-luciferase reporter assay, HepG2 cells expressing TMPRSS6, hBMP6) [µg/mL] | Binder
2 | B1
0.3 | B2
3 | B3
0.3 | B4
0.8 | B5
1 | B6

Target: T2, human ecto-TMPRSS6-FLAG
Assay: BLI (Octet)

Kd [nM] | Binder
6.4 | B1
13.7 | B2
0.66 | B3
18.4 | B4
3.36 | B5
0.82 | B6
